Source: US20240199739A1 (Takeda / Millennium, published 2024)

Target: cyno EpCAM (cyno)
Test: assay not stated; drawn table, heading 'Binding Affinity (nM)', column 'Cyno'

cyno EpCAM (cyno), sequence (Q1WER1 24-265): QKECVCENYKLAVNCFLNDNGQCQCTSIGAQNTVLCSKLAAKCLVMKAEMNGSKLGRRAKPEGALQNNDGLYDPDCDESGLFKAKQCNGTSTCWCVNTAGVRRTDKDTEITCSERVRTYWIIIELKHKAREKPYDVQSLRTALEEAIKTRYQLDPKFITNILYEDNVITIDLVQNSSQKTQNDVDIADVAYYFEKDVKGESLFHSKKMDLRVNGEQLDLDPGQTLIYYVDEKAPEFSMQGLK

Kd: 51.8 nM
B1: hVIB-23 (VHH)
VHH: QVQLVESGGGLVQPGGSLTLSCVISGSFSALWAMRWYRQAPGQQRELVASSRGGTTSYADSVKGRFTISRDNSKNTLYLQMNSLRPEDTAVYYCNAIDGHLAYWGQGTLVTVSS
